Experimental data published in patent publication US20250163162A1.

B1: hIL10Ra_VHH14-hIL2Rg_VHH19, linker GS, tag his (bispecific antibody, not shown: small tags and cut ends)
chain: QVQLQESGGGSVQAGGSLRLSCGASGYTYSSYCMGWFRQVPGKEREGVAVIDSDGSTSYADSVKGRFTISKDNGKNTLYLQMNSLKPEDTAMYYCAADLGHYRPPCGVLYLGMDYWGKGTQVTVSSGSQVQLQESGGGSVQAGGSLRLSCTASGFTFDDREMNWYRQAPGNECELVSTISSDGSTYYADSVKGRFTISQDNAKNTVYLQMDSVKPEDTAVYYCAADFMIAIQAPGAGCWGQGTQVTVSS
B2: hIL10Ra_VHH14-hIL2Rg_VHH19, no linker, tag his (bispecific antibody, not shown: small tags and cut ends)
chain: QVQLQESGGGSVQAGGSLRLSCGASGYTYSSYCMGWFRQVPGKEREGVAVIDSDGSTSYADSVKGRFTISKDNGKNTLYLQMNSLKPEDTAMYYCAADLGHYRPPCGVLYLGMDYWGKGTQVTVSSQVQLQESGGGSVQAGGSLRLSCTASGFTFDDREMNWYRQAPGNECELVSTISSDGSTYYADSVKGRFTISQDNAKNTVYLQMDSVKPEDTAVYYCAADFMIAIQAPGAGCWGQGTQVTVSS
B3: hIL10Ra_VHH14-hIL2Rg_VHH19, linker GGGS, tag Fc (Fc fusion, not shown: a dimerising Fc or GST)
chain: QVQLQESGGGSVQAGGSLRLSCGASGYTYSSYCMGWFRQVPGKEREGVAVIDSDGSTSYADSVKGRFTISKDNGKNTLYLQMNSLKPEDTAMYYCAADLGHYRPPCGVLYLGMDYWGKGTQVTVSSGGGSQVQLQESGGGSVQAGGSLRLSCTASGFTFDDREMNWYRQAPGNECELVSTISSDGSTYYADSVKGRFTISQDNAKNTVYLQMDSVKPEDTAVYYCAADFMIAIQAPGAGCWGQGTQVTVSS
B4: hIL10Ra_VHH14-hIL2Rg_VHH19, linker GGGS, tag his (bispecific antibody, not shown: small tags and cut ends)
chain: B3 chain
B5: hIL10Ra_VHH14-hIL2Rg_VHH19, linker GGSGGS, tag his (bispecific antibody, not shown: small tags and cut ends)
chain: QVQLQESGGGSVQAGGSLRLSCGASGYTYSSYCMGWFRQVPGKEREGVAVIDSDGSTSYADSVKGRFTISKDNGKNTLYLQMNSLKPEDTAMYYCAADLGHYRPPCGVLYLGMDYWGKGTQVTVSSGGSGGSQVQLQESGGGSVQAGGSLRLSCTASGFTFDDREMNWYRQAPGNECELVSTISSDGSTYYADSVKGRFTISQDNAKNTVYLQMDSVKPEDTAVYYCAADFMIAIQAPGAGCWGQGTQVTVSS

Target: T1, IL10Rα and IL2Rγ on human primary cells (CD8 T cells, CD4 T cells, monocytes) (human) (UniProt Q13651)
T1 sequence (looked up) 1: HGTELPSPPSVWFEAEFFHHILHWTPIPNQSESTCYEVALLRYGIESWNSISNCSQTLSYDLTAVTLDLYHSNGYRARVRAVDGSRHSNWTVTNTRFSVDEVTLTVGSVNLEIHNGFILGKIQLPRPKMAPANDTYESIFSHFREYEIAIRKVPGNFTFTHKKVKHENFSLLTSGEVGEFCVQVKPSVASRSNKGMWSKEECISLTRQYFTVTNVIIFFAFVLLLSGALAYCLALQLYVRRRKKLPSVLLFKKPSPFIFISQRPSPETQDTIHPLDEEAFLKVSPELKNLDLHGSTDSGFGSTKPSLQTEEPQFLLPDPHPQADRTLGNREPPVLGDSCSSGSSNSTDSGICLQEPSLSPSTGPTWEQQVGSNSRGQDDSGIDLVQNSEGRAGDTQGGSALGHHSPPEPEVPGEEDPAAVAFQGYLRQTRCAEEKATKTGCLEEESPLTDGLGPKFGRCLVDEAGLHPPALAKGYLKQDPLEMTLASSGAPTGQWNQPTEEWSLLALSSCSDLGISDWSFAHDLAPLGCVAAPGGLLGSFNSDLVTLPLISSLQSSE
T1 sequence (looked up) 2: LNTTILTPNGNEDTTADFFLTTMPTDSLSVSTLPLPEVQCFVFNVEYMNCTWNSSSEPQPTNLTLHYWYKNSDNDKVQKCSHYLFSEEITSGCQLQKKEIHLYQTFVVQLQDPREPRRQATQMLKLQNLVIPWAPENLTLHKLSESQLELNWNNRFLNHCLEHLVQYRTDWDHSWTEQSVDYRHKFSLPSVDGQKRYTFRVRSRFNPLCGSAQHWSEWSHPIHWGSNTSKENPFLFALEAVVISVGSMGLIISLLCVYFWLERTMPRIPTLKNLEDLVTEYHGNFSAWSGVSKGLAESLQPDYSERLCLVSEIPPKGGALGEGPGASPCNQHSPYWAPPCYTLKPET
Test: cell-based or functional assay

| Binder | pSTAT3 (MFI) in CD4 T cells at 0.0001 µM | pSTAT3 (MFI) in CD4 T cells at 0.001 µM | pSTAT3 (MFI) in CD4 T cells at 0.01 µM | pSTAT3 (MFI) in CD4 T cells at 0.1 µM | pSTAT3 (MFI) in CD4 T cells at 1 µM | pSTAT3 (MFI) in CD4 T cells at 10 µM | pSTAT3 (MFI) in CD4 T cells at 100 µM | pSTAT3 (MFI) in CD8 T cells at 0.0001 µM | pSTAT3 (MFI) in CD8 T cells at 0.001 µM | pSTAT3 (MFI) in CD8 T cells at 0.01 µM | pSTAT3 (MFI) in CD8 T cells at 0.1 µM | pSTAT3 (MFI) in CD8 T cells at 1 µM | pSTAT3 (MFI) in CD8 T cells at 10 µM | pSTAT3 (MFI) in CD8 T cells at 100 µM | pSTAT3 (MFI) in monocytes at 0.0001 µM | pSTAT3 (MFI) in monocytes at 0.001 µM | pSTAT3 (MFI) in monocytes at 0.01 µM | pSTAT3 (MFI) in monocytes at 0.1 µM | pSTAT3 (MFI) in monocytes at 1 µM | pSTAT3 (MFI) in monocytes at 10 µM | other results |
| --- | --- | --- | --- | --- | --- | --- | --- | --- | --- | --- | --- | --- | --- | --- | --- | --- | --- | --- | --- | --- | --- |
| B1 | 11700 MFI | 12800 MFI | 13600 MFI | 10900 MFI | 12900 MFI | 12600 MFI | 11600 MFI | 7400 MFI | 8110 MFI | 8110 MFI | 7100 MFI | 8200 MFI | 8410 MFI | 7900 MFI | 4040 MFI | 4820 MFI | 4010 MFI | 4430 MFI | 4790 MFI | 4930 MFI | pSTAT3 (MFI) in monocytes at 100 µM: 4930 MFI |
| B2 | 12200 MFI | 12900 MFI | 12500 MFI | 11000 MFI | 12100 MFI | 11800 MFI | 9040 MFI | 7380 MFI | 7740 MFI | 7800 MFI | 6780 MFI | 7720 MFI | 7490 MFI | 6200 MFI | 3970 MFI | 4600 MFI | 4420 MFI | 4420 MFI | 4480 MFI | 4330 MFI | pSTAT3 (MFI) in monocytes at 100 µM: 4140 MFI |
| B3 | 12600 MFI | 12600 MFI | 12500 MFI | 11300 MFI | 13600 MFI | 14800 MFI | 16000 MFI | 7540 MFI | 7890 MFI | 7800 MFI | 7330 MFI | 9320 MFI | 12300 MFI | 13200 MFI | 4370 MFI | 4740 MFI | 4420 MFI | 4810 MFI | 5690 MFI | 6690 MFI | pSTAT3 (MFI) in monocytes at 100 µM: 6030 MFI |
| B4 | 11900 MFI | 12100 MFI | 11700 MFI | 9670 MFI | 9590 MFI | 11400 MFI | 14700 MFI | 7210 MFI | 7460 MFI | 7200 MFI | 6580 MFI | 6500 MFI | 7930 MFI | 9970 MFI | 4150 MFI | 4510 MFI | 4360 MFI | 4280 MFI | 4640 MFI | 4840 MFI | pSTAT3 (MFI) in monocytes at 100 µM: 4880 MFI |
| B5 | 13200 MFI | 13900 MFI | 12800 MFI | 13600 MFI | 13000 MFI | 11800 MFI | 10200 MFI | 7960 MFI | 8500 MFI | 7660 MFI | 8160 MFI | 7720 MFI | 8300 MFI | 7000 MFI | 4220 MFI | 4680 MFI | 4560 MFI | 4470 MFI | 4750 MFI | 4890 MFI | pSTAT3 (MFI) in monocytes at 100 µM: 4730 MFI |
